Measurements published in patent US12215323B2, “Exogenous control of mammalian gene expression through aptamer-mediated modulation of polyadenylation” (Baylor College of Medicine, priority 2015, dated 2025).

B1: D11A: GP2SLGP2 variant in stem/loop-II region; SEQ ID NO: 61 (nucleic acid)
chain: GCTAGCGAATTGCACACACACAAATCTGGGGAGGTGAAGAATACGACCACCTGCGTTTTATACTTTGTTAAAACATACCATCCTAAGCCTAAGGCAAACGCTATGGTATGGATGGGGAGGTGAAGAATACGACCACCTAATAAAGTATAAAGTGCAAAACATACCAGATCTGTGTGTTGGTTTTTTGTGTGGAATTCCACACACACAAATCTGGGGAGGTGAAGAATACGACCACCTGCGTTTTATACTTTGTTAAAACATACCAGATCGAAAGATCTGGGGAGGTGAAGAATACGACCACCTAATAAAGTATAAAGTGCAAAACATACCAGATCTGTGTGTTGGTTTTTTGTGTGAACGGGGGAGGGGGAGGAAAGGGGGAGGGGGAGCGGCCGC
modifications: Synthetic Primer
B2: C12: GP2SLGP2 variant in stem/loop-II region, central stem equivalent length 20 bp; SEQ ID NO: 60 (nucleic acid)
chain: CTGCAGCACACACACAAATCTGGGGAGGTGAAGAATACGACCACCTGCGTTTTATACTTTGTTAAAACATACCAGATCGAATTCGATCTGGGGAGGTGAAGAATACGACCACCTAATAAAGTATAAAGTGCAAAACATACCAGATCTGTGTGTTGGTTTTTTGTGTGGCTAGCCACACACACAAATCTGGGGAGGTGAAGAATACGACCACCTGCGTTTTATACTTTGTTAAAACATACCAGATCGAATTCGATCTGGGGAGGTGAAGAATACGACCACCTAATAAAGTATAAAGTGCAAAACATACCAGATCTGTGTGTTGGTTTTTTGTGTGAACGGGGGAGGGGGAGGAAAGGGGGAGGGGGAGCGGCCGC
modifications: Synthetic Primer
B3: GP2SLGP2: two GP2 aptamers connected back to back (Helper and Center); SEQ ID NO: 59 (nucleic acid)
chain: GCTAGCCACACACACAAATCTGGGGAGGTGAAGAATACGACCACCTGCGTTTTATACTTTGTTAAAACATACCAGATCGAAAGATCTGGGGAGGTGAAGAATACGACCACCTAATAAAGTATAAAGTGCAAAACATACCAGATCTGTGTGTTGGTTTTTTGTGTGGAATTCCACACACACAAATCTGGGGAGGTGAAGAATACGACCACCTGCGTTTTATACTTTGTTAAAACATACCAGATCGAAAGATCTGGGGAGGTGAAGAATACGACCACCTAATAAAGTATAAAGTGCAAAACATACCAGATCTGTGTGTTGGTTTTTTGTGTGAACGGGGGAGGGGGAGGAAAGGGGGAGGGGGAGCGGCCGC
modifications: Synthetic Primerr

How the values were obtained:
hammerhead ribozyme = conditions: retina of nude mice, toyocamycin drug pellet under dorsal skin, ribozyme-based sensor; cited from earlier work
[1] = tested on: luciferase reporter gene expression; assay: Luciferase reporter assay of tetracycline-aptamer polyA switch constructs with and without tc; assay type: cell-based, human
Excerpt: The general strategy for detecting and imaging proteins via modulation of polyA cleavage is critically dependent upon the highly efficient cleavage of the polyA signal at the 5′ UTR (FIG. 1). A first step was to test candidate polyA signals and associated upstream and downstream motifs that enable efficient polyA cleavage in cells. For testing polyA cleavage efficiency, a transient transfection assay involving a mammalian expression vector^49 was used with a GFP or luciferase reporter (merely as examples). Candidate polyA signal sequences were cloned at the 5′UTR of the reporter gene or transgene within the expression vector.

| Molecule | induced luciferase reporter expression (hammerhead ribozyme) | induction (fold), ratio of luciferase activity with and without Tc ([1]; 5 μg/mL Tc) [fold] | induction (fold), ratio of luciferase activity with and without Tc ([1]; 15 μg/mL Tc) [fold] |
| --- | --- | --- | --- |
| N#Cc1cn([C@@H]2O[C@H](CO)[C@@H](O)[C@H]2O)c2ncnc(N)c12 [toyocamycin] | up to 180 fold | – | – |
| B1 | – | 84 | 127 |
| B2 | – | 94 | 151 |
| B3 | – | 70 | 104 |
